Here are results for two molecules from patent US20190233847.

Data set [1] addresses cpCas9-1283 circular permutation: residues 1284-1368, (GGS)n linker, then 1-1283 (Streptococcus pyogenes) (UniProt Q99ZW2). As to the kind of experiment: cell_activity. Particulars: enrichment in RFP repression FACS screen, E. coli.
For data set [2], the target named is cpCas9-200 circular permutation: residues 201-1368, (GGS)n linker, then 1-200 (Streptococcus pyogenes) (UniProt Q99ZW2). The data set can be described thus: cell_activity. The following applies: enrichment in RFP repression FACS screen, E. coli.
Data set [3] has as its target cpCas9-231 circular permutation: residues 232-1368, (GGS)n linker, then 1-231 (Streptococcus pyogenes) (UniProt Q99ZW2). As to the kind of experiment: cell_activity. Particulars: enrichment in RFP repression FACS screen, E. coli.
In data set [4] the target is cpCas9-1250 circular permutation: residues 1251-1368, (GGS)n linker, then 1-1250 (Streptococcus pyogenes) (UniProt Q99ZW2). The data set can be described thus: cell_activity. Particulars: enrichment in RFP repression FACS screen, E. coli.
The target in data set [5] is cpCas9-1017 circular permutation: residues 1018-1368, (GGS)n linker, then 1-1017 (Streptococcus pyogenes) (UniProt Q99ZW2). As to the kind of experiment: cell_activity. Particulars: enrichment in RFP repression FACS screen, E. coli.
Data set [6] has as its target cpCas9-311 circular permutation: residues 312-1368, (GGS)n linker, then 1-311 (Streptococcus pyogenes) (UniProt Q99ZW2). The data set can be described thus: cell_activity. Particulars: enrichment in RFP repression FACS screen, E. coli.
In data set [7] the target is cpCas9-271 circular permutation: residues 272-1368, (GGS)n linker, then 1-271 (Streptococcus pyogenes) (UniProt Q99ZW2). The data set can be described thus: cell_activity. Particulars: enrichment in RFP repression FACS screen, E. coli.
In data set [8] the target is cpCas9-182 circular permutation: residues 183-1368, (GGS)n linker, then 1-182 (Streptococcus pyogenes) (UniProt Q99ZW2). The data set can be described thus: cell_activity. Particulars: enrichment in RFP repression FACS screen, E. coli.
Data set [9] addresses cpCas9-1042 circular permutation: residues 1043-1368, (GGS)n linker, then 1-1042 (Streptococcus pyogenes) (UniProt Q99ZW2). As to the kind of experiment: cell_activity. Particulars: enrichment in RFP repression FACS screen, E. coli.
Data set [10] concerns the target cpCas9-1011 circular permutation: residues 1012-1368, (GGS)n linker, then 1-1011 (Streptococcus pyogenes) (UniProt Q99ZW2). The data set can be described thus: cell_activity. Particulars: enrichment in RFP repression FACS screen, E. coli.
Data set [11] has as its target subset of circular permuted dCas9 proteins (CPs) with a TEV linker (ENLYFQ\S) between the N & C termini.

Consider “RFP-targeting guide RNA ; RFP reporter target”, for which the binding signal (log2 fold change) came to 18 in data set [1]; 17.7 in data set [2]; 17.2 in data set [3]; 18.1 in [4]; 17 in data set [5]; 15.6 in [6]. For the same molecule, the binding signal (log2 fold change) in [7] turned out to be 16.7; in [8], 17.1; in [9] it was 17.8; in data set [10], 17.3.

B1: Tobacco Etch Virus (TEV) protease (protein)
chain: GESLFKGPRDYNPISSTICHLTNESDGHTTSLYGIGFGPFIITNKHLFRRNNGTLLVQSLHGVFKVKNTTTLQQHLIDGRDMIIIRMPKDFPPFPQKLKFREPQREERICLVTTNFQTKSMSSMVSDTSCTFPSSDGIFWKHWIQTKDGQCGSPLVSTRDGFIVGIHSASNFTNTNNYFTSVPKNFMELLTNQEAQQWVSGWRLNADSVLWGGHKVFMSKPEEPFQPVKEATQLMNELVYSQ
As to B1, the “western blot of linker cleavage” value in [11] is “the CPs were cleaved at the correct location when an active TEV protease was present in the cell”.
